From US20240301429A1 (RSEM LIMITED PARTNERSHIP, published 2024)

T1: SEMA3A-FC (R&D systems) (Homo sapiens (Human), UniProt Q14563 22-771)
T1 construct: Bought reagent; not shown: Fc portion of the bought fusion, detected with anti-human IgG
T1 sequence: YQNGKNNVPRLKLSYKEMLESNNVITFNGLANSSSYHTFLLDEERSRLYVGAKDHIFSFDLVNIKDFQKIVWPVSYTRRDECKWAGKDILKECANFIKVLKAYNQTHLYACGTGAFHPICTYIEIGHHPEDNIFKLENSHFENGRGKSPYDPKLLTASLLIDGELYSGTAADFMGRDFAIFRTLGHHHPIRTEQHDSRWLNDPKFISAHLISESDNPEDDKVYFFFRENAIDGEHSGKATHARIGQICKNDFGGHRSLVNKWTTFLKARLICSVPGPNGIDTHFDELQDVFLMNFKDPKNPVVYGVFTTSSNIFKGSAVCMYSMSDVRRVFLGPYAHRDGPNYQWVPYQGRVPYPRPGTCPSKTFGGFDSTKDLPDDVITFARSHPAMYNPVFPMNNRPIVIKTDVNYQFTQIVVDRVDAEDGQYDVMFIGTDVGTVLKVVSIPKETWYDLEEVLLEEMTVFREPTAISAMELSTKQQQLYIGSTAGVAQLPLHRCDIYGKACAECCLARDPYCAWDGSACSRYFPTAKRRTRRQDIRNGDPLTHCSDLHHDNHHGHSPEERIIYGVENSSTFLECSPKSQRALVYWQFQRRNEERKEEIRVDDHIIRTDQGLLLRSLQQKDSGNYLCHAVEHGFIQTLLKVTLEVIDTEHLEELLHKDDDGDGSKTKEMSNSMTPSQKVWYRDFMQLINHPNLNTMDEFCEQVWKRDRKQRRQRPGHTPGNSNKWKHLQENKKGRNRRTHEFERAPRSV


target: T1, SEMA3A-FC (R&D systems); experiment: saturation binding, trap coated on plate, SEMA3A-FC titrated, anti-human IgG-HRP chemiluminescence
Description: Sema 3A and AP-VEGF₁₆₅ binding assays. Saturation curves for the determinations of KD of binding to SEMA 3A or VEGF165 were obtained as follow. Wells of high protein binding 96 well plates (Maxisorp, Nunc) were coated with purified traps diluted in PBS and blocked afterward with binding buffer (PBS containing 2% casein and 0.05% Tween 20). The SEMA3A-FC (R&D systems) or AP-VEGF165 ligands were diluted in binding buffer over an extensive range of concentrations and added to wells. Following an overnight incubation, wells were washed with PBS containing 0.05% tween. Bound SEMA3a-FC was detected using an HRP-linked anti-Human IgG (Biorad) and ECL substrate (Pierce). Alternatively, bound AP-VEGF165 was detected using CPD star substrate (Roche). The Chemiluminescent signal was acquired on a TECAN reader. Dissociation constant (KD) were determined by non-linear curve fitting using the Graph Pad prism software.

| binding result | Kd | Binder |
| --- | --- | --- |
| no binding |  | NRP1 trap AE (receptor, Signal peptide not trimmed) FRNDKCGDTIKIESPGYLTSPGYPHSYHPSEKCEWLIQAPDPYQRIMINFNPHFDLEDRDCKYDYVEVFDGENENGHFRGKFCGKIAPPPVVSSGPFLFIKFVSDYETHGAGFSIRYELFKRGPECSQNYTTPSGVIKSPGFPEKYPNSLECTYIVFAPKMSEIILEFESFDLEPDSNPPGGMFCRYDRLEIWDGFPDVGPHIGRYCGQKTPGRIRSSSGILSMVFYTDSAIAKEGFSANYSVLQSSVSEDFKCMEALGMESGEIHSDQITASSQYSTNWSAERSRLNYPENGWTPGEKSYREWIQVDLGLLRFVTAVGTQGAISKETKKKYYVKTYKIDVSSNGEDWITIKEGNKPVLFQGNTNPTDVVVAVFPKPLITRFVRIKPATWETGISMRFEVYGCKITDYPCSGMLGMVSGLISDSQITSSNQGDRNWMPENIRLVTSRSGWALPPAPHSYINEWLQIDLGEEKIVRGIIIQGGKHRENKVFMRKFKIGYSNNGSDWKMIMDDSKRKAKSFEGNNNYDTPELRTFPALSTRFIRIYPERATHGGLGLRMELLGCRSGSKENLYFQG |
| no binding |  | NRP1 trap Q (receptor, a1a2-b1b2 with Y297A (held in the entry); Signal peptide not trimmed) FRNDKCGDTIKIESPGYLTSPGYPHSYHPSEKCEWLIQAPDPYQRIMINFNPHFDLEDRDCKYDYVEVFDGENENGHFRGKFCGKIAPPPVVSSGPFLFIKFVSDYETHGAGFSIRYELFKRGPECSQNYTTPSGVIKSPGFPEKYPNSLECTYIVFAPKMSEIILEFESFDLEPDSNPPGGMFCRYDRLEIWDGFPDVGPHIGRYCGQKTPGRIRSSSGILSMVFYTDSAIAKEGFSANYSVLQSSVSEDFKCMEALGMESGEIHSDQITASSQASTNWSAERSRLNYPENGWTPGEDSYREWIQVDLGLLRFVTAVGTQGAISKETKKKYYVKTYKIDVSSNGEDWITIKEGNKPVLFQGNTNPTDVVVAVFPKPLITRFVRIKPATWETGISMRFEVYGCKITDYPCSGMLGMVSGLISDSQITSSNQGDRNWMPENIRLVTSRSGWALPPAPHSYINEWLQIDLGEEKIVRGIIIQGGKHRENKVFMRKFKIGYSNNGSDWKMIMDDSKRKAKSFEGNNNYDTPELRTFPALSTRFIRIYPERATHGGLGLRMELLGCRSGSKENLYFQG |
|  | 2.4 nM | NRP1 trap AJ (receptor, a2b1b2c; Signal peptide not trimmed) FRNDKRGPECSQNYTTPSGVIKSPGFPEKYPNSLECTYIVFAPKMSEIILEFESFDLEPDSNPPGGMFCRYDRLEIWDGFPDVGPHIGRYCGQKTPGRIRSSSGILSMVFYTDSAIAKEGFSANYSVLQSSVSEDFKCMEALGMESGEIHSDQITASSQYSTNWSAERSRLNYPENGWTPGEDSYREWIQVDLGLLRFVTAVGTQGAISKETKKKYYVKTYKIDVSSNGEDWITIKEGNKPVLFQGNTNPTDVVVAVFPKPLITRFVRIKPATWETGISMRFEVYGCKITDYPCSGMLGMVSGLISDSQITSSNQGDRNWMPENIRLVTSRSGWALPPAPHSYINEWLQIDLGEEKIVRGIIIQGGKHRENKVFMRKFKIGYSNNGSDWKMIMDDSKRKAKSFEGNNNYDTPELRTFPALSTRFIRIYPERATHGGLGLRMELLGCEVEAPTAGPTTPNGNLVDECDDDQANCHSGTGDDFQLTGGTTVLATEKPTVIDSTIQSEFPTYGFNCEFGWGSHKTFCHWEHDNHVQLKWSVLTSKTGPIQDHTGDGNFIYSQADENQKGKVARLVSPVVYSQNSAHCMTFWYHMSGSHVGTLRVKLRYQKPEEYDQLVWMAIGHQGDHWKEGRVLLHKSLKLYQVIFEGEIGKGNLGGIAVDDISINNHISQEDCAKPADLDKKNPEIKIDETGSTPGYEGEGEGDKNISRKPGNVLKTLDPRSGSKENLYFQG |
|  | 0.95 nM | NRP1 trap M (receptor, a1a2-b1; Signal peptide not trimmed) FRNDKCGDTIKIESPGYLTSPGYPHSYHPSEKCEWLIQAPDPYQRIMINFNPHFDLEDRDCKYDYVEVFDGENENGHFRGKFCGKIAPPPVVSSGPFLFIKFVSDYETHGAGFSIRYELFKRGPECSQNYTTPSGVIKSPGFPEKYPNSLECTYIVFAPKMSEIILEFESFDLEPDSNPPGGMFCRYDRLEIWDGFPDVGPHIGRYCGQKTPGRIRSSSGILSMVFYTDSAIAKEGFSANYSVLQSSVSEDFKCMEALGMESGEIHSDQITASSQYSTNWSAERSRLNYPENGWTPGEDSYREWIQVDLGLLRFVTAVGTQGAISKETKKKYYVKTYKIDVSSNGEDWITIKEGNKPVLFQGNTNPTDVVVAVFPKPLITRFVRIKPATWETGISMRFEVYGCRSGSKENLYFQG |
| no binding |  | NRP1 trap AD (receptor, Signal peptide not trimmed) FRNDKCGDTIKIESPGYLTSPGYPHSYHPSEKCEWLIQAPDPYQRIMINFNPHFDLEDRDCKYDYVEVFDGENENGHFRGKFCGKIAPPPVVSSGPFLFIKFVSDYETHGAGFSIRYELFKRGPECSQNYTTPSGVIKSPGFPEKYPNSLECTYIVFAPKMSEIILEFESFDLEPDSNPPGGMFCRYDRLEIWDGFPDVGPHIGRYCGQKTPGRIRSSSGILSMVFYTDSAIAKEGFSANYSVLQSSVSEDFKCMEALGMESGEIHSDQITASSQYSTNWSAERSRLNYPENGWTPGEKSYREWIQVDLGLLRFVTAVGTQGAISKETKKKYYVKTYKIDVSSNGEDWITIKEGNKPVLFQGNTNPTDVVVAVFPKPLITRFVRIKPATWETGISMRFEVYGCRSGSKENLYFQG |
| no binding |  | NRP1 trap P (receptor, a1a2-b1 with Y297A (held in the entry); Signal peptide not trimmed) FRNDKCGDTIKIESPGYLTSPGYPHSYHPSEKCEWLIQAPDPYQRIMINFNPHFDLEDRDCKYDYVEVFDGENENGHFRGKFCGKIAPPPVVSSGPFLFIKFVSDYETHGAGFSIRYELFKRGPECSQNYTTPSGVIKSPGFPEKYPNSLECTYIVFAPKMSEIILEFESFDLEPDSNPPGGMFCRYDRLEIWDGFPDVGPHIGRYCGQKTPGRIRSSSGILSMVFYTDSAIAKEGFSANYSVLQSSVSEDFKCMEALGMESGEIHSDQITASSQASTNWSAERSRLNYPENGWTPGEDSYREWIQVDLGLLRFVTAVGTQGAISKETKKKYYVKTYKIDVSSNGEDWITIKEGNKPVLFQGNTNPTDVVVAVFPKPLITRFVRIKPATWETGISMRFEVYGCRSGSKENLYFQG |
|  | 4.4 nM | NRP1 trap AK (receptor, a2b1b2; Signal peptide not trimmed) FRNDKRGPECSQNYTTPSGVIKSPGFPEKYPNSLECTYIVFAPKMSEIILEFESFDLEPDSNPPGGMFCRYDRLEIWDGFPDVGPHIGRYCGQKTPGRIRSSSGILSMVFYTDSAIAKEGFSANYSVLQSSVSEDFKCMEALGMESGEIHSDQITASSQYSTNWSAERSRLNYPENGWTPGEDSYREWIQVDLGLLRFVTAVGTQGAISKETKKKYYVKTYKIDVSSNGEDWITIKEGNKPVLFQGNTNPTDVVVAVFPKPLITRFVRIKPATWETGISMRFEVYGCKITDYPCSGMLGMVSGLISDSQITSSNQGDRNWMPENIRLVTSRSGWALPPAPHSYINEWLQIDLGEEKIVRGIIIQGGKHRENKVFMRKFKIGYSNNGSDWKMIMDDSKRKAKSFEGNNNYDTPELRTFPALSTRFIRIYPERATHGGLGLRMELLGCRSGSKENLYFQG |
|  | 4.44 nM | NRP1 trap Z (receptor, a1a2-b1b2-c with E319K, D320K (held in the entry); Signal peptide not trimmed) FRNDKCGDTIKIESPGYLTSPGYPHSYHPSEKCEWLIQAPDPYQRIMINFNPHFDLEDRDCKYDYVEVFDGENENGHFRGKFCGKIAPPPVVSSGPFLFIKFVSDYETHGAGFSIRYELFKRGPECSQNYTTPSGVIKSPGFPEKYPNSLECTYIVFAPKMSEIILEFESFDLEPDSNPPGGMFCRYDRLEIWDGFPDVGPHIGRYCGQKTPGRIRSSSGILSMVFYTDSAIAKEGFSANYSVLQSSVSEDFKCMEALGMESGEIHSDQITASSQYSTNWSAERSRLNYPENGWTPGKKSYREWIQVDLGLLRFVTAVGTQGAISKETKKKYYVKTYKIDVSSNGEDWITIKEGNKPVLFQGNTNPTDVVVAVFPKPLITRFVRIKPATWETGISMRFEVYGCKITDYPCSGMLGMVSGLISDSQITSSNQGDRNWMPENIRLVTSRSGWALPPAPHSYINEWLQIDLGEEKIVRGIIIQGGKHRENKVFMRKFKIGYSNNGSDWKMIMDDSKRKAKSFEGNNNYDTPELRTFPALSTRFIRIYPERATHGGLGLRMELLGCEVEAPTAGPTTPNGNLVDECDDDQANCHSGTGDDFQLTGGTTVLATEKPTVIDSTIQSEFPTYGFNCEFGWGSHKTFCHWEHDNHVQLKWSVLTSKTGPIQDHTGDGNFIYSQADENQKGKVARLVSPVVYSQNSAHCMTFWYHMSGSHVGTLRVKLRYQKPEEYDQLVWMAIGHQGDHWKEGRVLLHKSLKLYQVIFEGEIGKGNLGGIAVDDISINNHISQEDCAKPADLDKKNPEIKIDETGSTPGYEGEGEGDKNISRKPGNVLKTLDPRSGSKENLYFQG |
